Substitutions are numbered along the chain they refer to. In names and notes the source's numbering stands. Several values for one entry are separate records, joined by “and”; a condition that tells them apart may be missing. Identical values can stand only once.
T1: biotinylated CD3 epsilon epitope peptide (UniProt P07766 22-48, biotinylated)
T1 chain: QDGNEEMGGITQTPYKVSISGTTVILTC

B1: dBBDu193/L127 (antibody, V domains shown)
VH: QVQLVESGGGLVQPGRSLRLSCAASGFTFSNAWMHWVRQAPGKGLEWVAQIKDRSNQYATYYAPSVKGRFTISRDDSKNSIYLQMNSLKTEDTAVYYCHYVHYSAASTLLPSFGVDAWGQGTTVTVSS
VL: DIVMTQSPLSLPVTPGEPASISCRASEELLHINRHIFLHWYQQKPGQAPRLLIYKVYNRFTGVPDRFSGSGSGTDFTLKISRVEAEDVGVYYCAQGTSVPFTFGQGTKLEIK
notes: also called dBBDu_193 / dBBDu.L127
B2: dBBDu193/L132 (antibody, V domains shown)
VH: B1 VH
VL: B1 VL with R24Q, A25T, L30V, H35F, Y57S, T61S
notes: also called dBBDu_193 / dBBDu.L132
B3: dBBDu189/L126 (antibody, V domains shown)
VH: B1 VH with V48I, S104A, A105Q, T108S
VL: B1 VL with A25T, H35Y, Y57Q, T61S, T97S, S98A
B4: dBBDu167/L094 (antibody, V domains shown)
VH: B1 VH with R54K, S55G, Q57L, T60A, S104A, A105S, S107G, T108G, L109G, S112G
VL: B1 VL with R24Y, F37Y, T61N, T97S
notes: Purified IgG; Fab genes of the panning output converted into IgG format; also called dBBDu_167/dBBDu.L094
B5: dBBDu186/L098 (antibody, V domains shown)
VH: B1 VH with S104A, A105Q, L109V, S112A
VL: B1 VL with R24A, L30V, H35Y, Y57S, T61I, T97S, S98Q
notes: Purified IgG; Fab genes of the panning output converted into IgG format
B6: dBBDu186/L108 (antibody, V domains shown)
VH: B1 VH with S104A, A105Q, L109V, S112A
VL: B1 VL with A25T, H35F, I36T, Y57S, T61M, T97S, S98A
notes: as for B5
B7: dBBDu189/L119 (antibody, V domains shown)
VH: B1 VH with V48I, S104A, A105Q, T108S
VL: B1 VL with R24T, E27Q, L30V, H35F, Y57S, T61I, T97S, S98Q
notes: as for B5
B8: dBBDu186/L106 (antibody, V domains shown)
VH: B1 VH with S104A, A105Q, L109V, S112A
VL: B1 VL with R24S, A25T, H35F, Y57A, T61M, T97S, S98Q
notes: as for B5
B9: dBBDu186/L100 (antibody, V domains shown)
VH: B1 VH with S104A, A105Q, L109V, S112A
VL: B1 VL with R24S, L30V, H35Y, T61M, A94G, T97S
notes: as for B5
B10: dBBDu_H115/L039 (antibody, human IgG1, V domains shown)
VH: QVQLVESGGGLVQPGRSLRLSCAASGFTFSNAWMHWVRQAPGKGLEWVAQIKDKANSYNTYYAPSVKGRFTISRDDSKNSIYLQMNSLKTEDTAVYYCRYVHYGSSYGFLFAGYGVDAWGQGTTVTVSS
VL: DIVMTQSPLSLPVTPGEPASISCTSSQSLLHANRNTYLHWYQQKPGQAPRLLIYKVSNRFSGVPDRFSGSGSGTDFTLKISRVEAEDVGVYYCAQGTSAPFTFGQGTKLEIK
notes: Full length IgG (human IgG1 CH1-Fc heavy chain, kappa light chain)
B11: dBBDu_H115/L035 (antibody, human IgG1, V domains shown)
VH: B10 VH
VL: B10 VL with T24A, S25A, Q27E, A32T, S98Q, A99S
notes: as for B10
B12: dBBDu_H115/L016 (antibody, human IgG1, V domains shown)
VH: B10 VH
VL: B10 VL with L9M, T24Q, Q27E, S61N, S98A, A99N, F101Y
notes: as for B10
B13: dBBDu_H115/L008 (antibody, V domains shown)
VH: B10 VH
VL: B10 VL with T24Q, Q27E, S28E, N35K, S57Q, S98A, A99T
notes: Full length IgG (human IgG1 CH1-Fc heavy chain, kappa light chain); also called Du115/DUL008
B14: dBBDu_H115/L014 (antibody, human IgG1, V domains shown)
VH: B10 VH
VL: B10 VL with A32Q, S61N, S98A, A99N
notes: as for B10
B15: CE115HA000 V11L/D72A/L78I/D101Q without insertion, one-arm antibody (antibody, human IgG1, kappa, L234A L235A, N297A, name in Kabat numbering)
heavy: QVQLVESGGGLVQPGRSLRLSCAASGFTFSNAWMHWVRQAPGKGLEWVAQIKAKSNNYATYYAESVKGRFTISRADSKNSIYLQMNSLKTEDTAVYYCRYVHYGAYYGVQAWGQGTTVTVSSASTKGPSVFPLAPSSKSTSGGTAALGCLVKDYFPEPVTVSWNSGALTSGVHTFPAVLQSSGLYSLSSVVTVPSSSLGTQTYICNVNHKPSNTKVDKKVEPKSCDKTHTCPPCPAPEAAGGPSVFLFPPKPKDTLMISRTPEVTCVVVDVSHEDPEVKFNWYVDGVEVHNAKTKPREEQYASTYRVVSVLTVLHQDWLNGKEYKCKVSNKALPAPIEKTISKAKGQPREPQVYTLPPSRCELTKNQVSLSCAVKGFYPSDIAVEWESNGQPENNYKTTPPVLDSDGSFFLVSKLTVDKSRWQQGNVFSCSVMHEALHNHYTQKSLSLSPDYKDDDDK
chain: EPKSSDKTHTCPPCPAPELLGGPSVFLFPPKPKDTLMISRTPEVTCVVVDVSHEDPEVKFNWYVDGVEVHNAKTKPREEQYNSTYRVVSVLTVLHQDWLNGKEYKCKVSNKALPAPIEKTISKAKGQPREPQVCTLPPSRDELTKNQVSLWCLVKGFYPSDIAVEWESNGQPENNYKTTPPVLDSDGSFFLYSKLTVDKSRWQQGNVFSCSVMHEALHNRYTQKSLSLSP
light: DIVMTQSPLSLPVTPGEPASISCRSSQSLVHSNRNTYLHWYQQKPGQAPRLLIYKVSNRFSGVPDRFSGSGSGTDFTLKISRVEAEDVGVYYCGQGTQVPYTFGQGTKLEIKRTVAAPSVFIFPPSDEQLKSGTASVVCLLNNFYPREAKVQWKVDNALQSGNSQESVTEQDSKDSTYSLSSTLTLSKADYEKHKVYACEVTHQGLSSPVTKSFNRGEC
notes: one-arm antibody; also called No insertion
B16: CE115HA000 (unaltered), one-arm antibody with GLS3000 (antibody, human IgG1, kappa, L234A L235A, N297A)
heavy: B15 heavy with L11V, A75D, I81L, Q110D
chain: B15 chain
light: B15 light
B17: CE115HA000 V11L/D72A/L78I/D101Q with GGSGGS inserted between Kabat positions 99 and 100, one-arm antibody (antibody, V domains shown)
VH: QVQLVESGGGLVQPGRSLRLSCAASGFTFSNAWMHWVRQAPGKGLEWVAQIKAKSNNYATYYAESVKGRFTISRADSKNSIYLQMNSLKTEDTAVYYCRYVHYGAGGSGGSYYGVQAWGQGTTVTVSS
VL: DIVMTQSPLSLPVTPGEPASISCRSSQSLVHSNRNTYLHWYQQKPGQAPRLLIYKVSNRFSGVPDRFSGSGSGTDFTLKISRVEAEDVGVYYCGQGTQVPYTFGQGTKLEIKR
B18: CE115HA000 V11L/D72A/L78I/D101Q with GGSGGSGGS inserted between Kabat positions 99 and 100, one-arm antibody (antibody, V domains shown)
VH: QVQLVESGGGLVQPGRSLRLSCAASGFTFSNAWMHWVRQAPGKGLEWVAQIKAKSNNYATYYAESVKGRFTISRADSKNSIYLQMNSLKTEDTAVYYCRYVHYGAGGSGGSGGSYYGVQAWGQGTTVTVSS
VL: B17 VL
B19: CE115HA000 V11L/D72A/L78I/D101Q with GGSGGGS inserted between Kabat positions 99 and 100, one-arm antibody (antibody, V domains shown)
VH: QVQLVESGGGLVQPGRSLRLSCAASGFTFSNAWMHWVRQAPGKGLEWVAQIKAKSNNYATYYAESVKGRFTISRADSKNSIYLQMNSLKTEDTAVYYCRYVHYGAGGSGGGSYYGVQAWGQGTTVTVSS
VL: B17 VL

target: T2, biotin-labeled human CD137 fused to human IgG1 Fc fragment (human CD137-Fc) (human, biotin-labeled); test: bead ELISA on biotin-human CD137-Fc, 250 ng IgG; free human IgG1 Fc 62.5 pmol as control competitor
T2 construct: also called biotin-human CD137-Fc

ELISA signal with Free Fc 62.5 pmol | Binder
6080 | B1
116000 | B2
75100 | B3

target: T2, biotin-labeled human CD137 fused to …; test: bead ELISA on biotin-human CD137-Fc; decrease of signal with free CD3 epsilon as competitor against free Fc

Signal decrease [%] | Binder
59.4 | B1
91 | B2
87 | B3

target: T3, biotin-labeled human CD137 fused to human IgG1 Fc fragment (human, biotin-labeled); test: bead ELISA, IgG on biotin-human CD137-Fc; competitor: free CD3 epsilon 62.5 pmol
T3 construct: also called human CD137-Fc; biotin-human CD137-Fc

ELISA signal, Free CD3e 62.5 pmol | Binder
4370 | B4
15900 | B5
50800 | B6
20400 | B7
3090 | B8
88900 | B9

target: T3, biotin-labeled human CD137 fused to …; test: bead ELISA, IgG on biotin-human CD137-Fc; control competitor: free human IgG1 Fc 62.5 pmol

ELISA signal, Free Fc 62.5 pmol | Binder
141000 | B4
115000 | B5
83600 | B6
88100 | B7
9860 | B8
102000 | B9

target: T2, biotin-labeled human CD137 fused to …; test: bead ELISA on biotin-human CD137-Fc, 250 ng IgG; free CD3 epsilon 62.5 pmol as competitor

ELISA signal with Free CD3e 62.5 pmol | Binder
2470 | B1
10400 | B2
9750 | B3

target: T4, biotin-labeled human CD137 fused to human IgG1 Fc fragment (human, biotin-labeled); test: bead ELISA (chemiluminescence), IgG on biotin-human CD137-Fc on streptavidin beads; competitor free CD3 epsilon 62.5 pmol
T4 construct: also called human CD137-Fc; biotin-human CD137-Fc

ELISA signal with Free CD3e 62.5 pmol | Binder
1550 | B10
1470 | B11
1540 | B12
1450 | B13
1510 | B14

target: T4, biotin-labeled human CD137 fused to …; test: bead ELISA (chemiluminescence), IgG on biotin-human CD137-Fc on streptavidin beads; control competitor free human Fc 62.5 pmol

ELISA signal with Free Fc 62.5 pmol | Binder
55800 | B10
70600 | B11
46800 | B12
76900 | B13
72100 | B14

target: T4, biotin-labeled human CD137 fused to …; test: bead ELISA, IgG on biotin-human CD137-Fc; signal with free CD3e 62.5 pmol against free Fc 62.5 pmol

Signal decrease [%] | Binder
97.2 | B10
97.9 | B11
96.7 | B12
98.1 | B13
97.9 | B14

Target: T1, biotinylated CD3 epsilon epitope peptide
Test: SPR (Biacore); biotinylated CD3 epsilon epitope peptide on chip via streptavidin, antibody as analyte

Kd | Binder
6.96 nM | B15
110 nM | B16
34.6 nM and 31.1 nM | B17
43.9 nM and 35.4 nM | B18
43.5 nM and 34.3 nM | B19

target: T3, biotin-labeled human CD137 fused to …; test: bead ELISA, IgG on biotin-human CD137-Fc; decrease with free CD3 epsilon 62.5 pmol against free Fc 62.5 pmol

Signal decrease [%] | Binder
96.9 | B4
86.2 | B5
39.2 | B6
76.9 | B7
68.7 | B8
13 | B9
